Reference: article PMC7041718 (The Journal of Experimental Medicine, 2019)

Molecular target: 16055 gp120 (HIV-1 clade C clinical isolate 16055)
Experiment: ELISA

B1: GM7_TH2 mAb (antibody, V domains shown)
VH: QVQLVQSGTEVKQPGASVKVSCKASGYTFTGYGMNWVRQAHGQRLEWMGWINTETGHPTYAQGFKERFTFSMDTSISTAYLQINSLKPEDTAIYYCARFSGLHSVAVFEYWGQGVLVTVSS
VL: SSGLTQEPALSVALGHTVRMTCQGDSLKTYYATWYQQKPGQVPVLVIYDNNYRPSGIPGRFSVSWSGDTNSLTITAAQVEDEADYYCNSWDSSGTHLLFGGGTRLTVL
binding result: binds
